Bridge positions count the residues as written; N and C are the ends. Square brackets hold non-standard residues; d marks the D form. 1Nal = N[C@@H](Cc1cccc2ccccc12)C(=O)O; 2Nal = N[C@@H](Cc1ccc2ccccc2c1)C(=O)O; d2Nal = N[C@H](Cc1ccc2ccccc2c1)C(=O)O; Bta = N[C@@H](Cc1csc2ccccc12)C(=O)O; Aib = CC(C)(N)C(=O)O; βAla = NCCC(=O)O
B1: Ac-c(Cys-Glu-His-D-2-Nal-Arg-1-Nal-Ala-Cys)-Pro-Pro-Lys-Asp-β-[…]NH2 (peptide)
peptide: Ac-CEH[d2Nal]R[1Nal]ACPPKD[βAla]GRRKRRQRRR-NH2
modifications: disulfide 1-8
SMILES: CC(=O)N[C@H]1CSSC[C@@H](C(=O)N2CCC[C@H]2C(=O)N2CCC[C@H]2C(=O)N[C@@H](CCCCN)C(=O)N[C@@H](CC(=O)O)C(=O)NCCC(=O)NCC(=O)N[C@@H](CCCNC(=N)N)C(=O)N[C@@H](CCCNC(=N)N)C(=O)N[C@@H](CCCCN)C(=O)N[C@@H](CCCNC(=N)N)C(=O)N[C@@H](CCCNC(=N)N)C(=O)N[C@@H](CCC(N)=O)C(=O)N[C@@H](CCCNC(=N)N)C(=O)N[C@@H](CCCNC(=N)N)C(=O)N[C@@H](CCCNC(=N)N)C(N)=O)NC(=O)[C@H](C)NC(=O)[C@H](Cc2cccc3ccccc23)NC(=O)[C@H](CCCNC(=N)N)NC(=O)[C@@H](Cc2ccc3ccccc3c2)NC(=O)[C@H](Cc2c[nH]cn2)NC(=O)[C@H](CCC(=O)O)NC1=O
B2: Ac-c(Cys-Glu-His-D-2-Nal-Arg-Bal-Ala-Cys)-Pro-Pro-Arg-Asp-β-[…]NH2 (peptide)
peptide: Ac-CEH[d2Nal]R[Bta]ACPPRD[βAla]RRRRRRQRRR-NH2
modifications: disulfide 1-8
SMILES: CC(=O)N[C@H]1CSSC[C@@H](C(=O)N2CCC[C@H]2C(=O)N2CCC[C@H]2C(=O)N[C@@H](CCCNC(=N)N)C(=O)N[C@@H](CC(=O)O)C(=O)NCCC(=O)N[C@@H](CCCNC(=N)N)C(=O)N[C@@H](CCCNC(=N)N)C(=O)N[C@@H](CCCNC(=N)N)C(=O)N[C@@H](CCCNC(=N)N)C(=O)N[C@@H](CCCNC(=N)N)C(=O)N[C@@H](CCCNC(=N)N)C(=O)N[C@@H](CCC(N)=O)C(=O)N[C@@H](CCCNC(=N)N)C(=O)N[C@@H](CCCNC(=N)N)C(=O)N[C@@H](CCCNC(=N)N)C(N)=O)NC(=O)[C@H](C)NC(=O)[C@H](Cc2csc3ccccc23)NC(=O)[C@H](CCCNC(=N)N)NC(=O)[C@@H](Cc2ccc3ccccc3c2)NC(=O)[C@H](Cc2c[nH]cn2)NC(=O)[C@H](CCC(=O)O)NC1=O
B3: Ac-c(Cys-Glu-His-D-2-Nal-Arg-1-Nal-Ala-Cys)-Pro-Pro-Lys-Asp-β-[…]NH2 (peptide)
peptide: Ac-CEH[d2Nal]R[1Nal]ACPPKD[βAla]GRKRRRQRRR-NH2
modifications: disulfide 1-8
SMILES: CC(=O)N[C@H]1CSSC[C@@H](C(=O)N2CCC[C@H]2C(=O)N2CCC[C@H]2C(=O)N[C@@H](CCCCN)C(=O)N[C@@H](CC(=O)O)C(=O)NCCC(=O)NCC(=O)N[C@@H](CCCNC(=N)N)C(=O)N[C@@H](CCCCN)C(=O)N[C@@H](CCCNC(=N)N)C(=O)N[C@@H](CCCNC(=N)N)C(=O)N[C@@H](CCCNC(=N)N)C(=O)N[C@@H](CCC(N)=O)C(=O)N[C@@H](CCCNC(=N)N)C(=O)N[C@@H](CCCNC(=N)N)C(=O)N[C@@H](CCCNC(=N)N)C(N)=O)NC(=O)[C@H](C)NC(=O)[C@H](Cc2cccc3ccccc23)NC(=O)[C@H](CCCNC(=N)N)NC(=O)[C@@H](Cc2ccc3ccccc3c2)NC(=O)[C@H](Cc2c[nH]cn2)NC(=O)[C@H](CCC(=O)O)NC1=O
B4: Ac-c(Cys-Glu-His-D-2-Nal-Arg-Bal-Ala-Cys)-Pro-Pro-Lys-Asp-β-[…]NH2 (peptide)
peptide: Ac-CEH[d2Nal]R[Bta]ACPPKD[βAla]GRRKRRQRRR-NH2
modifications: disulfide 1-8
SMILES: CC(=O)N[C@H]1CSSC[C@@H](C(=O)N2CCC[C@H]2C(=O)N2CCC[C@H]2C(=O)N[C@@H](CCCCN)C(=O)N[C@@H](CC(=O)O)C(=O)NCCC(=O)NCC(=O)N[C@@H](CCCNC(=N)N)C(=O)N[C@@H](CCCNC(=N)N)C(=O)N[C@@H](CCCCN)C(=O)N[C@@H](CCCNC(=N)N)C(=O)N[C@@H](CCCNC(=N)N)C(=O)N[C@@H](CCC(N)=O)C(=O)N[C@@H](CCCNC(=N)N)C(=O)N[C@@H](CCCNC(=N)N)C(=O)N[C@@H](CCCNC(=N)N)C(N)=O)NC(=O)[C@H](C)NC(=O)[C@H](Cc2csc3ccccc23)NC(=O)[C@H](CCCNC(=N)N)NC(=O)[C@@H](Cc2ccc3ccccc3c2)NC(=O)[C@H](Cc2c[nH]cn2)NC(=O)[C@H](CCC(=O)O)NC1=O
B5: Ac-c(Cys-Glu-His-D-2-Nal-Arg-Bal-Ala-Cys)-Pro-Pro-Lys-Asp-β-[…]NH2 (peptide)
peptide: Ac-CEH[d2Nal]R[Bta]ACPPKD[βAla]GRKRRRQRRR-NH2
modifications: disulfide 1-8
SMILES: CC(=O)N[C@H]1CSSC[C@@H](C(=O)N2CCC[C@H]2C(=O)N2CCC[C@H]2C(=O)N[C@@H](CCCCN)C(=O)N[C@@H](CC(=O)O)C(=O)NCCC(=O)NCC(=O)N[C@@H](CCCNC(=N)N)C(=O)N[C@@H](CCCCN)C(=O)N[C@@H](CCCNC(=N)N)C(=O)N[C@@H](CCCNC(=N)N)C(=O)N[C@@H](CCCNC(=N)N)C(=O)N[C@@H](CCC(N)=O)C(=O)N[C@@H](CCCNC(=N)N)C(=O)N[C@@H](CCCNC(=N)N)C(=O)N[C@@H](CCCNC(=N)N)C(N)=O)NC(=O)[C@H](C)NC(=O)[C@H](Cc2csc3ccccc23)NC(=O)[C@H](CCCNC(=N)N)NC(=O)[C@@H](Cc2ccc3ccccc3c2)NC(=O)[C@H](Cc2c[nH]cn2)NC(=O)[C@H](CCC(=O)O)NC1=O
B6: Ac-c(Cys-Glu-His-D-2-Nal-Arg-2-Nal-Ala-Cys)-Pro-Pro-Lys-Asp-β-[…]NH2 (peptide)
peptide: Ac-CEH[d2Nal]R[2Nal]ACPPKD[βAla]GRRKRRQRRR-NH2
modifications: disulfide 1-8
SMILES: CC(=O)N[C@H]1CSSC[C@@H](C(=O)N2CCC[C@H]2C(=O)N2CCC[C@H]2C(=O)N[C@@H](CCCCN)C(=O)N[C@@H](CC(=O)O)C(=O)NCCC(=O)NCC(=O)N[C@@H](CCCNC(=N)N)C(=O)N[C@@H](CCCNC(=N)N)C(=O)N[C@@H](CCCCN)C(=O)N[C@@H](CCCNC(=N)N)C(=O)N[C@@H](CCCNC(=N)N)C(=O)N[C@@H](CCC(N)=O)C(=O)N[C@@H](CCCNC(=N)N)C(=O)N[C@@H](CCCNC(=N)N)C(=O)N[C@@H](CCCNC(=N)N)C(N)=O)NC(=O)[C@H](C)NC(=O)[C@H](Cc2ccc3ccccc3c2)NC(=O)[C@H](CCCNC(=N)N)NC(=O)[C@@H](Cc2ccc3ccccc3c2)NC(=O)[C@H](Cc2c[nH]cn2)NC(=O)[C@H](CCC(=O)O)NC1=O
B7: Ac-c(Cys-Glu-His-D-2-Nal-Arg-Bal-Ala-Cys)-Pro-Pro-Lys-Asp-β-Ala-Tyr-Aib-Arg-Lys-Lys-Arg-Arg-Gln-Arg-Arg-Arg-NH2 (peptide)
peptide: Ac-CEH[d2Nal]R[Bta]ACPPKD[βAla]Y[Aib]RKKRRQRRR-NH2
modifications: disulfide 1-8
SMILES: CC(=O)N[C@H]1CSSC[C@@H](C(=O)N2CCC[C@H]2C(=O)N2CCC[C@H]2C(=O)N[C@@H](CCCCN)C(=O)N[C@@H](CC(=O)O)C(=O)NCCC(=O)N[C@@H](Cc2ccc(O)cc2)C(=O)NC(C)(C)C(=O)N[C@@H](CCCNC(=N)N)C(=O)N[C@@H](CCCCN)C(=O)N[C@@H](CCCCN)C(=O)N[C@@H](CCCNC(=N)N)C(=O)N[C@@H](CCCNC(=N)N)C(=O)N[C@@H](CCC(N)=O)C(=O)N[C@@H](CCCNC(=N)N)C(=O)N[C@@H](CCCNC(=N)N)C(=O)N[C@@H](CCCNC(=N)N)C(N)=O)NC(=O)[C@H](C)NC(=O)[C@H](Cc2csc3ccccc23)NC(=O)[C@H](CCCNC(=N)N)NC(=O)[C@@H](Cc2ccc3ccccc3c2)NC(=O)[C@H](Cc2c[nH]cn2)NC(=O)[C@H](CCC(=O)O)NC1=O
B8: Ac-c(Cys-Glu-His-D-2-Nal-Arg-Bal-Ala-Cys)-Pro-Pro-Arg-Asp-β-[…]NH2 (peptide)
peptide: Ac-CEH[d2Nal]R[Bta]ACPPRD[βAla]RRRRRQRRR-NH2
modifications: disulfide 1-8
SMILES: CC(=O)N[C@H]1CSSC[C@@H](C(=O)N2CCC[C@H]2C(=O)N2CCC[C@H]2C(=O)N[C@@H](CCCNC(=N)N)C(=O)N[C@@H](CC(=O)O)C(=O)NCCC(=O)N[C@@H](CCCNC(=N)N)C(=O)N[C@@H](CCCNC(=N)N)C(=O)N[C@@H](CCCNC(=N)N)C(=O)N[C@@H](CCCNC(=N)N)C(=O)N[C@@H](CCCNC(=N)N)C(=O)N[C@@H](CCC(N)=O)C(=O)N[C@@H](CCCNC(=N)N)C(=O)N[C@@H](CCCNC(=N)N)C(=O)N[C@@H](CCCNC(=N)N)C(N)=O)NC(=O)[C@H](C)NC(=O)[C@H](Cc2csc3ccccc23)NC(=O)[C@H](CCCNC(=N)N)NC(=O)[C@@H](Cc2ccc3ccccc3c2)NC(=O)[C@H](Cc2c[nH]cn2)NC(=O)[C@H](CCC(=O)O)NC1=O
B9: Ac-c(Cys-Glu-His-D-2-Nal-Arg-Bal-Ala-Cys)-Pro-Pro-Lys-Asp-β-[…]NH2 (peptide)
peptide: Ac-CEH[d2Nal]R[Bta]ACPPKD[βAla]RKRRRQRRR-NH2
modifications: disulfide 1-8
SMILES: CC(=O)N[C@H]1CSSC[C@@H](C(=O)N2CCC[C@H]2C(=O)N2CCC[C@H]2C(=O)N[C@@H](CCCCN)C(=O)N[C@@H](CC(=O)O)C(=O)NCCC(=O)N[C@@H](CCCNC(=N)N)C(=O)N[C@@H](CCCCN)C(=O)N[C@@H](CCCNC(=N)N)C(=O)N[C@@H](CCCNC(=N)N)C(=O)N[C@@H](CCCNC(=N)N)C(=O)N[C@@H](CCC(N)=O)C(=O)N[C@@H](CCCNC(=N)N)C(=O)N[C@@H](CCCNC(=N)N)C(=O)N[C@@H](CCCNC(=N)N)C(N)=O)NC(=O)[C@H](C)NC(=O)[C@H](Cc2csc3ccccc23)NC(=O)[C@H](CCCNC(=N)N)NC(=O)[C@@H](Cc2ccc3ccccc3c2)NC(=O)[C@H](Cc2c[nH]cn2)NC(=O)[C@H](CCC(=O)O)NC1=O

Columns and labels:
Assay in all cases: [125I]-NDP-α-MSH competition, membranes
[1] = molecular target: T1, human melanocortin receptor subtype 4 (hMC4-R) (human, UniProt P32245 1-332)
T1 construct: whole, on cells; membranes of CHO-K1 cells
T1 sequence (P32245 whole entry): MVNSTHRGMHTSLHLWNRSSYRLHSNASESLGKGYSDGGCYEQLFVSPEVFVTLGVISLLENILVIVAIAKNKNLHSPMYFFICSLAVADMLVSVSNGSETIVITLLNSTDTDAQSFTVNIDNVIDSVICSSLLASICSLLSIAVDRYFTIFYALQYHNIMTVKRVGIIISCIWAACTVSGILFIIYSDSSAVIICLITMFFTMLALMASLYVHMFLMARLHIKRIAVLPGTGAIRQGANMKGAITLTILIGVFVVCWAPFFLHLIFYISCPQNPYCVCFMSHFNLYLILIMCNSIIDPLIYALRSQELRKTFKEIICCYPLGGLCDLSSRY

[2] = molecular target: T2, human melanocortin receptor subtype 1 (hMC1-R) (human, UniProt Q01726 1-317)
T2 construct: whole, on cells; membranes of CHO-K1 cells
T2 sequence (Q01726 whole entry): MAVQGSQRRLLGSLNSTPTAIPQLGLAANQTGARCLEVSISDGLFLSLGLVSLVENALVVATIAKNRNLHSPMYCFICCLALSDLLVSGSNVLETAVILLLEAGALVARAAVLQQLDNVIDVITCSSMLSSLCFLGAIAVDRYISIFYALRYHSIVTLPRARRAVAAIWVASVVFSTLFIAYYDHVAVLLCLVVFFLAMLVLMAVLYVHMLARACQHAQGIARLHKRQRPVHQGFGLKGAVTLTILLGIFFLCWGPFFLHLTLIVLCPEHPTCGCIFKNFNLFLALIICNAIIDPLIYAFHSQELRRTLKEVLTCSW

[3] = molecular target: T3, human melanocortin receptor subtype 5 (hMC5-R) (human, UniProt P33032 1-325)
T3 construct: whole, on cells; membranes of CHO-K1 cells
T3 sequence (P33032 whole entry): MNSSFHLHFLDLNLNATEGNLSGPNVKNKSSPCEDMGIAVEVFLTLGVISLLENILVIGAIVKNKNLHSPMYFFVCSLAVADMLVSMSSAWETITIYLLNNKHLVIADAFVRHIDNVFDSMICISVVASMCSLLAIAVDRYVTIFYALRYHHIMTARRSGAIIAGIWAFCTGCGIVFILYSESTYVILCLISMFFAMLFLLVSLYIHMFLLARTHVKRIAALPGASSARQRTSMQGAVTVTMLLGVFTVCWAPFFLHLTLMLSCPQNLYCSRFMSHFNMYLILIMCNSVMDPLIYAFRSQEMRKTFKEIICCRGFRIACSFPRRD

[4] = molecular target: T4, human melanocortin receptor subtype 3 (hMC3-R) (human, UniProt P41968 1-323)
T4 construct: whole, on cells; membranes of CHO-K1 cells
T4 sequence (P41968 whole entry): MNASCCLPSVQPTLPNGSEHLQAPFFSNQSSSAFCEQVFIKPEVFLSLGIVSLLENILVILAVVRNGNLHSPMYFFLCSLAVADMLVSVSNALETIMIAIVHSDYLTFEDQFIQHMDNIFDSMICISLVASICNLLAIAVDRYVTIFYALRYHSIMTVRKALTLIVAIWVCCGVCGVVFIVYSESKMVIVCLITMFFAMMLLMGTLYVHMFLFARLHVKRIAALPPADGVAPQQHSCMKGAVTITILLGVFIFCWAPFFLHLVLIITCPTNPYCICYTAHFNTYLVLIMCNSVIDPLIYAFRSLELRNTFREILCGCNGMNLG

| Binder | Ki [1] [nM] | Ki [2] [nM] | Ki [3] [nM] | Ki [4] [nM] |
| --- | --- | --- | --- | --- |
| Ac-CEH[d2Nal]R[Bta]ACPPKD[βAla]GRRRRRQRRR-NH2 (disulfide 1-8) | 0.95 | 12.8 | 165 | 15.9 |
| B1 | 0.305 | 1.81 | 19.3 | 2.08 |
| B2 | 0.659 | 7.32 | 78 | 11 |
| Ac-CEH[d2Nal]R[Bta]ACPPKD[βAla]RRRRRRQRRR-NH2 (disulfide 1-8) | 0.781 | 6.77 | 84 | 14.3 |
| Ac-CEH[d2Nal]R[1Nal]ACPPKD[βAla]RRRRRRQRRR-NH2 (disulfide 1-8) | 0.819 | 6.66 | 88.8 | 19.3 |
| B3 | 0.243 | 2.69 | 19.2 | 2.59 |
| B4 | 0.573 | 2.5 | 15.7 | 1.59 |
| B5 | 0.425 | 4.29 | 15.5 | 2.15 |
| B6 | 0.202 | 2.71 | 5.53 | 0.732 |
| B7 | 0.783 | 7.84 | 91.8 | 10.2 |
| B8 | 0.302 | 4.11 | 48.3 | 7.26 |
| B9 | 0.575 | 3.28 | 15.5 | 1.95 |
